# Measured values reported in patent publication US20200102389A1 (Hoffmann-La Roche, published 2020).
# B1: HLA-G-0037 (antibody, V domains shown)
# VH: QVQLKESGPGLVQPSQTLSLTCSVSGFSLTTYSVSWVRQPPGKGLEWIGAIWSGGSTDYNSALKSRLRISRDTSKSQVLLKMNSLQTEDRAMYFCVRMNNKFGYWYFDLWGPGTMVTVSS
# VL: DTVLTQSPTLAVSPGEKITISCRASETVSTMLHWYQQKPGQQPKLLISLASHLESGVPARFTGSGSGTDFTLTIDPVEADDTATYYCQQTWNDPLTFGSGTKLEIK
# B2: HLA-G-0033 (antibody, V domains shown)
# VH: EVQLVETGGGLVQSGRSLKLSCVASGFTFNDYWMTWTRQAPGKGLEWVASITNSGGRTYYLDSVRGRFTISRDDAQNTLYLQMNSLRSEDTATYYCTKERIYLTAYWFFDFWGPGTMVTVSS
# VL: DTILTQSPALAVSPGERVTISCRASESVSTLIHWYQQKPGQRPKLLIYLASHLESGVPARFSGSGSGTDFTLTIDPVEADDTATYYCQQSWNEPRTFGGGTKLELK
# B3: HLA-G-0032 (antibody, V domains shown)
# VH: QVQLQQSGAELVKPGSSVKISCKASGYSFPSYDMHWIKQQPGNGLEWIGWIYPGNGNTKYNQKFNGKASLTADKSSSTAYMQLSSLTSEDSAVYFCAKPTVATRYNWFAYWGQGTLVTVSS
# VL: QIVLTQSPALMSASPGEKVTMTCSASSSVNYMHWYQQKPRSSPKPWIYLTSNLASGVPARFSGSGSGTSYSLTISTMEAEDAATYYCQQWSSNLPITFGSGTKLEIK
# Assays:
# [1] = biological target: T1, recombinant soluble human HLA-G β2M MHC class I complex, trimer (human); test: ELISA, HLA-G trimer coated on plate
# T1 construct: also called HLA-G Trimer; fraction A8
# Method: (§1) The above table summarizes the binding of different rat anti-human HLA-G monoclonal antibodies, derived from wt protein IMS. Shown are the relative EC50 values [ng/ml] of the respective binding to rec. wt monomeric, dimeric and trimeric HLA-G proteins as assessed by ELISA. The ELISA was set up by coating the biotinylated wt HLA-G antigen to strepdavidin plates. After incubation and washing steps, the respective antibodies were bound in a concentration range from 10-0 μg in 1:2 dilution steps. Detection of bound antibodies was carried out by anti-Fc-antibody-POD conjugates. EC50 values were determined from the resulting binding curves at the antibody concentrations generating the half-maximal signal. In case of the non-biotinylated HLA-G dimer and trimer antigens, immobilization was carried out by random coating on assay plates.
# [2] = biological target: T2, recombinant soluble human HLA-G β2M MHC class I complex, monomer (human); test: ELISA, biotinylated wt HLA-G monomer on streptavidin plate
# T2 construct: His tagged; also called HLA-G-0003
# Method: Streptavidin coated plates (Nunc, MicroCoat #11974998001) were coated with 25 μl/well biotinylated human wt HLA-G at a concentration of 250 ng/ml and incubated at 4° C. overnight. After washing (3×90 μl/well with PBST-buffer) 25 μl anti-HLA-G samples (1:3 dilution in OSEP buffer) or reference antibody (G233, Thermo/Pierce #MA1-19449, 500 ng/ml) were added and incubated 1 h at RT. After washing (3×90 μl/well with PBST-buffer) 25 μl/well goat-anti-mouse H+L-POD (Biorad #170-6561, 1:2000 in OSEP) or donkey-anti-rabbit IgG POD (GE #NA9340V, 1:5000 in OSE) was added and incubated at RT for 1 h on shaker. For detection of rat IgGs a mixture of goat-anti-rat IgG1-POD (Bethyl #A110-106P), goat-anti-rat IgG2a-POD (Bethyl #A110-109P) and goat-anti-rat IgG2b-POD (Bethyl #A110-111P) 1:10000 in OSEP was added and incubated at RT for 1 h on shaker. After washing (6×90 μl/well with PBST-buffer) 25 μl/well TMB substrate (Roche, 11835033001) was added and incubated until OD 2-3. Measurement took place on a Tecan Safire 2 instrument at 370/492 nm.
# as §1
# [3] = biological target: T2, recombinant soluble human HLA-G β2M MHC …; test: competition ELISA, immobilised biotinylated wt HLA-G, competitor c-myc ILT4
# Method: The above table summarizes the blocking of interaction between rec. HLA-G proteins (monomer and oligomers) to its receptors ILT2 and ILT4 as assessed by ELISA.
# (§2) The ELISA was set up by coating the biotinylated antigen wt HLA-G to strepdavidin plates. After incubation and washing steps, the respective antibodies were bound in a concentration range from 8-0 μg in 1:3 dilution steps. C-myc tagged ILT-2 or -4 receptor was added to the HLA-G-antibody complexes. After incubation and washing steps, detection of bound receptor was carried out by anti-cmyc-antibody-POD conjugates. IC50 values were determined from the resulting inhibition curves at the antibody concentrations generating the half-maximal inhibition. In case of the non-biotinylated HLA-G dimer and trimer antigens, immobilization was carried out by random coating on assay plates.
# [4] = biological target: T3, recombinant soluble human HLA-G β2M MHC class I complex, dimer (human); test: blocking ELISA, Fc tagged ILT2 coated, 100 nM antibody, soluble HLA-G dimer
# T3 construct: also called HLA-G Dimer; fraction A9
# Method: (§3) The ELISA was set up by coating the Fc tagged ILT2 and ILT4 respectively to Maxisorp microtiter plates. After incubation and washing steps, the respective antibodies were added at a concentration of 100nM. Soluble His tagged monomeric, dimeric or trimeric HLA-G was added to the wells. After incubation and washing steps, detection of bound receptor was carried out by anti-His-antibody-POD conjugates.
# [5] = biological target: T1, recombinant soluble human HLA-G β2M MHC …; test: blocking ELISA, Fc tagged ILT4 coated, 100 nM antibody, soluble HLA-G trimer
# Method: as §3
# [6] = biological target: T2, recombinant soluble human HLA-G β2M MHC …; test: blocking ELISA, Fc tagged ILT2 coated, 100 nM antibody, soluble HLA-G monomer
# Method: as §3
# [7] = biological target: T2, recombinant soluble human HLA-G β2M MHC …; test: blocking ELISA, Fc tagged ILT4 coated, 100 nM antibody, soluble HLA-G monomer
# Method: as §3
# [8] = biological target: T4, human HLA-G expressed on cells (JEG3 naturally; SKOV3 HLA-G+ and PA-TU-8902 HLA-G+ transfectants) (human, UniProt P17693 25-338); test: flow cytometry, JEG3 cells pre-incubated with antibody, competitor ILT2-Fc chimera
# T4 construct: whole, on cells; also called cell surface HLA-G; HLA-G on JEG3 cells
# Method: For analysis, JEG3 cells (ATCC HTB36) were stained with ILT2-Fc fusion proteins (control=no inhibition) with or without pre-incubation with different anti-HLA-G antibodies. For the pre-incubation with anti-HLA-G antibodies 25 μl/well of the cell suspension was transferred into a polypropylene 96-Well V-bottom plate and prechilled in the at 4° C. for 10 min. Anti HLA-G antibodies or reference antibodies (G233, MEM-G/9 or 87G) were diluted in staining buffer to a 2-fold concentration of 20 μg/ml and 25 μl/well of the antibody solution was added to the prepared cells and incubated for 1 h at 5° C. Cells were washed twice with 200 μl/well staining buffer with centrifugation at 300 g for 3 min and finally resuspended in 25 μl/well staining buffer.
# The detection of human ILT2-Fc Chimera protein (RD #2017-T2-050) to a) JEG3 cells pre-incubated anti HLA-G mAb or b) untreated JEG3 cells as reference was determined as follows: Briefly, the ILT2-Fc or control human IgG (Jackson-Immuno-Research #009-000-003) were diluted in staining buffer to a 2-fold concentration of 20 μg/ml (ILT2) and 25 μl/well of the ILT2-Fc protein solution was added to the prepared cells and incubated for 2 h at 5° C. Cells were again washed twice with 200 μl/well staining buffer the human ILT2-Fcprotein was detected with fluorescent labeled anti human IgG Fc-gamma specific antibody (F(ab′)₂ Fragment Goat Anti-Human IgG, Fcy fragment specific-FITC, Jackson-Immuno-Research #109-096-008) at a dilution of 10 μg/ml in staining buffer. Cell pellets were resuspended in 50 μl/well detection antibody. After a 1-hour incubation at 5° C. cells were washed twice with staining buffer, resuspended in 70 μl and measured at a FACS Canto II to determine ILT2 binding to JEG 3 cells.
# [9] = biological target: T1, recombinant soluble human HLA-G β2M MHC …; test: competition ELISA, immobilised HLA-G trimer, antibody titrated, competitor c-myc ILT2
# Method: as §2
binder,measurement,setting,value
B1,EC50,[1],2.5 nM
same,EC50,[2],4.95 nM
same,% inh. ILT4,[3],41%
same,% inh. ILT2,[4],96%
same,% inh. ILT4,[5],67%
same,% inh. ILT2,[6],73%
same,% inh. ILT4,[7],1%
same,Inhibition of ILT2 binding to Jeg3 cells,[8],96.5%
same,IC50,[9],0.1 nM
B2,EC50,[1],1.54 nM
same,EC50,[2],4.94 nM
same,% inh. ILT4,[3],44.6%
same,% inh. ILT2,[4],95%
same,% inh. ILT4,[5],71%
same,% inh. ILT2,[6],75%
same,% inh. ILT4,[7],14%
same,Inhibition of ILT2 binding to Jeg3 cells,[8],-9.3%
same,IC50,[9],0.5 nM
B3,EC50,[1],1.76 nM
same,EC50,[2],3.59 nM
same,% inh. ILT4,[3],43%
same,% inh. ILT2,[4],95%
same,% inh. ILT4,[5],68%
same,% inh. ILT2,[6],75%
same,% inh. ILT4,[7],12%
same,Inhibition of ILT2 binding to Jeg3 cells,[8],98.1%
same,IC50,[9],0.4 nM
